# According to the DeepSol protein solubility set:
# Experiment: soluble on expression in E. coli; label from the status in PepcDB or PDB records
row,Sequence,soluble on expression in E. coli
1,MGSDKIHHHHHHMSRTITIDPVTRIEGHATITIRLNDAGAVADARFHVTEFRGFERICIGRSIWEMPGITARICGICPVSHSISAARAGDAILGVEIPPAAVHLRRIANLASLIQSHALSFFHLSAADLLMGMDEEPSRRNLWGLVAHHPEVARGGIRLRQIGQKIVSDVAGESIHPSWAVPGGVREPLSPEGRDRIAALLPEGLAIVRGALGMLDGIYARHEAEITAYGDFPSLFAGLTASDGGLEHYDGSLRFTDSAGVHVDELSPEHYAQAVTERAEPWSYMTFPYYHPHGDREGGGMFRVGPLARLNICDRAGTPEADRELAAFRQVRGAGGMVTGSFHYHHARLIEILHALERIGMLLDEPDILDRHVRSEAGVNRPAGVGFCEAPRGTLFHDYEVDDDGIVSRVNLLIATGMNNLAINRTIRQVAAEFIRGGEFTEGILNRIEHGVRAYDPCLSCATHAYGRMPLRVMLLGPDGTVLDEAKRGR,not soluble
2,MGSDKIHHHHHHMSRTTVLRSAESDLTLHGRDAMGTLMRTGTLTNFLKVAQQLDFDPQPLLRKLGLTKEMLADPECLIPGSASVTLLKESARLTQCPTFGLRVAERWQLSDLGVISVLLTHQSTLRDAVGTLIQYRHLLNEFLVIRMEDVGRKVIVREELVADEAGTSIQSTELVLGSLSRLCSTLMGATWHPLSVHFTHDPPPDLRLHRRVFGGKLEFASSFNGMICRAADMDFPNPIADPVMARHARRLLEGLPGAKEPSIVLEVRKAIYLLLPLGRATIEQVAQGLGMNVRMLQRQLESAGMVFSDMVNGVRRDLVIHYMDNKSYTLGRIAQSLGYSAYGSFVRWFAAQFGMTPTRWQSLRQQKEDGRSPIQIHC,not soluble
3,MGSDKIHHHHHHMSSLQISQGTFRLSDTKTLHLDSLTLNAGDSWAFVGANGSGKSALARALAGELPLLTGERQCRFTRITRLSFEQLQKLVSDEWQRNNTDMLSPGEDDTGRTTAEIIQDDVHHPARCAILAQQFGISALLDRRFKYLSTGETRKALLCQALMSEPELLILDEPFDGLDVTARQQLAQRLTALNQAGMTLALVLNRFDEIPDFVQFAGVLADCTLAETGTTAELLQRALVAQLAHSERLTDVQLPEPDEPSARHALPDGEPRIVLNDGVVSYNDRPILHHLSWRVNPGEHWQIVGPNGAGKSTLLSLITGDHPQGYSNDLTLFGRRRGSGETIWDIKKHIGYVSSSLHLDYRVSTTVRNVILSGYFDSIGIYQAVSDRQRKLAQQWLDILGIDKRTADAPFHSLSWGQQRLALIVRALVKHPTVLILDEPLQGLDPLNRQLVRRFVDVLIRQGETQLLFVSHHAEDAPACITHRLEFVPEGERYKYVSGRCNN,not soluble
4,MGSDKIHHHHHHMSSLTKMLLILDLFSVDKPIWSADEIIQYCGHSRPTGYRYVKELCDAGLLRRAEGGYSLGPRVIELDYYIRQCDPLLIACRPVMVRVAQESGCDVLLASMYGTKIMAVHQELAHETGQIAFGRGRPMPLFRGGGSKVLLASMTASQLKKLYDRYGAEIAEAGLGATWADFRKQMLKYRNDGHVVSIGELDPNAAGVAIPIPVGDALDPAALVILTTRSRFDLMEKALLVDMAMNAARQIETSMRGNREVQAKALLLS,not soluble
5,MGSDKIHHHHHHMSSMSARNPFRPTFGVSPTVLAGRDSLLQSFKLGLAEGPGSPFRALLISGSRGMGKTVLLNEFEDAAASQGWITLRAYPDNSMVDGLVNSAIPEALQNLDGPQSKRMLSGVAIPGIATVTAIADPTKKDPTPTLISRLRELATRLQKHGSGILITLDELQSANVDLLHVLATAVQDLLRDDFDIALVAAGLPEGIDRLLQHEGTTFIRRAERILLNPVNHEDSVEMFLYTAAYGYRHMTSEAAELAAQISKGYPYSMQLTGSLAWARSTLDNSDTIQAEQVDAVRDEVVRRMGMQVHEPSLHQVPDGELTILYAIAQLSKNGEMVSTGDIAHLMGVKPNALSMQRKQLLSRGLVEVPKYGFLNFTLPYMREHLLNSPHHRPIT,not soluble
6,MGSDKIHHHHHHMSSSAPIDYAALADRIHTWGRELGFQQVGITDTDLAAHERYLERWLAAGYHGEMHFMAKHGSKRTRPEELVPGTLRVVSVRMDYLPPEVETTKVLGQPERAYISRYALGRDYHKLIRKRLATLAKRIEDEVGAYGYRAFVDSAPVMERALAQKAGLGWFGKNAMLLNPQAGSLFFLGELYTDLPLPVDAPFDSEHCGKCSRCQTACPTGAIVDDKVIDSRRCISYLTIELAGSIPEEYREAMGNRVYGCDDCQLVCPFTRFTRVSREDDFAPRHDLDRASLVRLFAWSEEEFLARTEGSAIRRIGYERWLRNLAIGLGNAPWSDQVESALRARLAYPSDLVREHVRWGLEQQRRKRERRIASDVDAPAAPERSA,not soluble
7,MGSDKIHHHHHHMSSSTTPDLLYPSADKVAEPSDNIHGDELRLRERIKDNPTNILSYFQLIQYLETQESYAKVREVYEQFHNTFPFYSPAWTLQLKGELARDEFETVEKILAQCLSGKLENNDLSLWSTYLDYIRRKNNLITGGQEARAVIVKAFQLVMQKCAIFEPKSSSFWNEYLNFLEQWKPFNKWEEQQRIDMLREFYKKMLCVPFDNLEKMWNRYTQWEQEINSLTARKFIGELSAEYMKARSLYQEWLNVTNGLKRASPINLRTANKKNIPQPGTSDSNIQQLQIWLNWIKWERENKLMLSEDMLSQRISYVYKQGIQYMIFSAEMWYDYSMYISENSDRQNILYTALLANPDSPSLTFKLSECYELDNDSESVSNCFDKCTQTLLSQYKKIASDVNSGEDNNTEYEQELLYKQREKLTFVFCVYMNTMKRISGLSAARTVFGKCRKLKRILTHDVYVENAYLEFQNQNDYKTAFKVLELGLKYFQNDGVYINKYLDFLIFLNKDSQIKTLFETSVEKVQDLTQLKEIYKKMISYESKFGNLNNVYSLEKRFFERFPQENLIEVFTSRYQIQNSNLIKKLELTYMYNEEEDSYFSSGNGDGHHGSYNMSSSDRKRLMEETGNNGNFSNKKFKRDSELPTEVLDLLSVIPKRQYFNTNLLDAQKLVNFLNDQVEIPTVESTKSG,not soluble
8,MGSDKIHHHHHHMSTINNRNPKISVLMSIYKENSLYVRQAIDSILNQSFGDFEFLIYNDNPEDFILDKLVLEIARKDSRIQYQRNEKNIGLAATLNRQICVAKGEYLARMDADDISLPDRFIMQVEYLDRNTNIAVLGTWAKIIDKEGQVISSASLKTGYNNIIACAMCDSPLFHPSVMIRKEFLQLNGLSYNEDFSCAQDYELWSRILFEKGGYIDNLSVYLIYYRVTTSQISSIKQQQQIYNSLLVRRNNISFFLNKYSIDLPRKITKTDVCNLINRISEFKEESSTHKIYVNILFMYCMSLPRLEKIILLIKYVCVFYSEFSLKQMCLLVASSFFMRKFPLCSLNIMLH,not soluble
9,MGSDKIHHHHHHMSTLDQSGTFHLAGRNIRRLGYGAMQLAGKGVFGPPKDREEAIAVVREAVDSGVNHIDTSDFYGPHITNQIIREALHPYADDLLIVTKVGATRGEDASWNAAFSKEELTQAVHDNLRNLGKEVLDVVNLRAMFDVHGPAEGSLAAPLEVLADLQRQGLIRHIGVSNVTPRQITEAGEIVEIVCVQNQYNLAHRQDDALIDTLAAQGIAYVPFFPLGGFSPLQSTVLSDVATQLDASPLQVALAWLLKRSSNILVIPGTSSRAHLRQNLAAASLDLPDSAMTALAAIGG,not soluble
10,MGSDKIHHHHHHMSTPPVDVCYKVNAPLSSQQFVELLAKTSLGPRRPLDDETAITGMLKHANLLVSAWQGETLVGIARSVTDFHFCCYLSDLAVSDDFQHAGIGKKLIQQTAQQLGKGCKIILLAAPLAVDYYPKLGFEKHNSAWLMAASDLHSEA,not soluble
11,MGSDKIHHHHHHMSVEQTYSWLRKAGSIDDLAHYIIPLFSGAEKKNWKGILGHLQHHGMFKNIKEGIQTVSKLKEKGFYGHIQKEEQYLKNKWQGPDVPIVTLPVDERNRRIRLEFGSKSGLAFQDKMFLFLSSDLDFGSVSALMTHEYHHVCRLGHLTKEEKDVTLLDTIIMEGLAEYAVYERFGRSQTAEWTTWYTPEQLQALYEKKIAPHRDIKRDNRLFPQLLFGKGYQPKMLGYAVGFNIVKKYLTASKASTADGLSIPAETFLDAML,not soluble
12,MGSDKIHHHHHHMSVRNFMAYHQLSYTFLNHQKLPLIIQPQAKAEGNIDVLKQFLKEENTLFKEQLLNYGAIILRGFHVNTAEQFLEVIRSSDLGPNYSYDFCPIPRTQIRENIYTSINIHPSFNLALHNEKSYDQDFPSHIFFNCIHAPQTGGDTALADGNKIWFSLPKLLQKKLQSKGILYRRHYYGSGIQYKIIRSIGKNSGCMTWMERFQTDDQNKVEVMLQQMGVQFRWIQGNGLIIEQLLPACRNHPISGKLVWFNQSNHANHYYNGTSDYIKSKINNTFSRFILLHKYFHPYIAFYGDGEPLSKQEADCINSAIQKNTVSTAWQPGDVMIVDNFSCLHGKTPHTGNRLILVGLTKYFD,not soluble
13,MGSDKIHHHHHHMSVSSTIEWTEATWNPTTGCHKISPGCKNCYAERFAERWRGVAGHPYEQGFDVKTWHERLKMPLSWKKPRLIFVNSMSDLFLDDISEEFIKDVFNVMEEASWHQFQVLTKRPQRMLKIANSIKKWPSNIWAGVSIESQAWVWRSEILKEIPAKIRFLSCEPLLGSLTLSLDELHWIIVGGESGVGARPMNIEWVRDIREQCIQANVPFFFKQWGGIQKKKYGREIDGRTWDGFPETIVDKNTKQVSPVK,not soluble
14,MGSDKIHHHHHHMSWEISGTYVGSCTCQLICPCPVDGLPTGPDGECRGLNVFHIASGKMDDTDLSGVDFAFANWFPSHLTAGGWKVGAVVDDAASDAQVRALGSILRGEAGGPFGDLAALYGEWLGLERAGVKFSGGDTPAGSVADRVVITFEPLPGPDGGVTTVKNAMYGFAPEFQIGKGTGHPDLFGLAFDGVYGETSDFSFASEMAEGAPKGRG,not soluble
15,MGSDKIHHHHHHMSYSLQKSMVAKVVGLSLVMLLAACSSDQRYKRQVSGDESYLKAPAQHVLNTPAGMILPVQNGDFDIPPVTLNGAVGKELDIRPPVQPLALLNGSRTQTSGDTATLLLENSAQNSQIWSQVIRVLQDNAFTIANRQDASQTLTTDWISWPREDENVPYQGRYQISVQQQGYQVALIVKLLGLQLNGQPVTTSDQTQRYAGLMLNVLSNGLDSQATARENALANRTIGSLDVQSGADDTGLPLLIVRGPYTVVWDRLPVALDKIGMKVNDRSRPQGSVSVTYRAPSGGTWDDLGAKNPELPNGDYKLQVGDLDNRSSLQFIDSKGHTLTQSQNDALVAVFQAAFSK,not soluble
16,MGSDKIHHHHHHMTAELLRLLENVLRVGVVTEIDVDEWRVRVSAGGLHTDWLRWDALRAGSFSVWIPPSVGEQVLLGCIGGNPETAVIIGSIYSAANPAPGSSSSELVIKAPDGATVRYDAAAGALEASGMKTARIVASVGVTLETPVVECTEHLVAKTFSFTEGGTMKGDVNHTGGAFKSNGVQADEHSHGNVLNGPGWSDGTR,not soluble
17,MGSDKIHHHHHHMTATTATAPTMRGGGRNELPPHLDDNLLTPRFYTTEFDKAAKTDLDIARKDFEAMFKEMEADYNLKHFDRKASLERLSELSPEDKAIYESYLVRSVVSEFSGFLLFKEISNRFKKAGRQELGQFFTFLARDEARHAGFLGRALKAEGINVDLPNLGNKRAATFFPLSWVLYSLYLSEKIGYWRYILINRHLNDNPEKVCAPLFDFFEPWCQDENRHGDCINLMMRCWPGMTKGFRGKLLSRFFLWSVFLTHTLTVCERGDFYGLLGIDPVLFDEEVIIQTNNTSRNAFPWVYNFDDGKFLEMRVQILKAFRNWRESSGLAKPVALSKFVSLILRQFALPMQKTNAVRYG,not soluble
18,MGSDKIHHHHHHMTCAFARTVESRFAELTPTAKRIASYMLANLDRLGLETADQIAQQTGTSGISVGRFLRSVGYRNLDDLKRELRGGADRPWMITDRLDEYRRTNGTNGTAGTQAAAIHSDDRALASSLDRELDAIRHVYRLAEEPVFAQVADRIAHADAVFILGIQSTRGISNAFSSYLEYLRPRVFYSDGQSGSYVDSLNSEFERPYCIVTDVRAYSRSARRYCQAAAERGQPFALVTDLYCPWAREWPADLLQVKTDVGQFWDSLAPLTCLFNLLITAVVDRLGPAIDRRVARNRELQHTFDQFES,not soluble
